Test results: paper PMC12912276 (Nature cell biology, 2025)

Target: T1, His-SUMO-C-GB1 (SETD2 region C) (UniProt Q9BYW2 817-1322)
T1 sequence (looked up): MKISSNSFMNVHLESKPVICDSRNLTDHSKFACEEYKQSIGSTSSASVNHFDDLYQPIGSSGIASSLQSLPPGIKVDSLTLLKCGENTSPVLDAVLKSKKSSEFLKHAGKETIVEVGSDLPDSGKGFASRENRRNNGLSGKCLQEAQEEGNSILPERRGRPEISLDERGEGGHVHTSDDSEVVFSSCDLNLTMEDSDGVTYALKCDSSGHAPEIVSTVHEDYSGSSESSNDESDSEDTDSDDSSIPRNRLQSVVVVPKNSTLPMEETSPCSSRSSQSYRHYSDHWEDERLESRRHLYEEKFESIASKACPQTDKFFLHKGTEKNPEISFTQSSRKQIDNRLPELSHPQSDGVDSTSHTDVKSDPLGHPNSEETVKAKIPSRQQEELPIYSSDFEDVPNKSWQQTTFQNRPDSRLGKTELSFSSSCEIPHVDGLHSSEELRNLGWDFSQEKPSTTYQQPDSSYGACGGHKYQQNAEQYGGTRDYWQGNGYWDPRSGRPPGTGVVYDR
Test: pull-down

binding result: binds
B1: GST-lamin A-CT (387-664 a.a.) (domain or fragment, human, UniProt P02545 387-664, looked up)
chain: LRLSPSPTSQRSRGRASSHSSQTQGGGSVTKKRKLESTESRSSFSQHARTSGRVAVEEVDEEGKFVRLRNKSNEDQSMGNWQIKRQNGDDPLLTYRFPPKFTLKAGQVVTIWAAGAGATHSPPTDLVWKAQNTWGCGNSLRTALINSTGEEVAMRKLVRSVTVVEDDEDEDGDDLLHHHHGSHCSSSGDPAEYNLRSRTVLCGTCGQPADKASASGSGAQVGGPISSGSSASSVTVTRSYRSVGGSGGGSFGDNLVTRSYLLGNSSPRTQSPQNCSIM
